Assay results as given in the supplement of paper PMC12764529.
± gives the half width of the 95% confidence interval.

Test: folding stability dG unfold (combined trypsin and chymotrypsin); higher = more stable
Procedure, shortened: (§1)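 Only designs with AlphaFold2 dimer inter-PAE above 15 were retained; each was a mini-protein under 80 residues with no cysteine, in a PA-tagged cDNA display construct. After digestion with trypsin and chymotrypsin and sequencing, K50 was inferred by Bayesian fitting of counts, and unfolding free energy was derived per protease or combined against a sequence-predicted unfolded-state K50 and a shared folded-state K50.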

Row | Sequence | folding stability dG unfold [kcal/mol]
1 | SAGGEYTVVSVLEERKDPATGKTVTLELLKDPNSNVLYRRVTTTDPANPDVVTTTLYDAAGNKVSTVSSAGG [r13_658_JUSTAS] | 2.48 ± 0.095
2 | SAGGSAGGMVTVPVPKDKPLNPVATVKLPDGSTIPAGPVAVDLEKGTATLEVPEPAEVIVEVNPSAGGSAGG [r6_180_JUSTAS] | 1.01 ± 0.037
3 | SAGGSAGGSAGMKVTVTITYPGGKVTTLDGDPEEVKAALPSSLTDVKITVTDPATGKVAASAGGSAGGSAGG [r11_353_JUSTAS] | 0.635 ± 0.12
4 | SAGGSAGGSAGGVPRLERFTLSPNGLPVRIFVDGDRALVVFEGPDGGLAVATFAVSDIPFSAGGSAGGSAGG [r7_653_TrMRF] | 1.31 ± 0.064
5 | SAGGMVTIELREVSEEEALKLAEELPPNTLLIPFPFGNLVLPVRVPDDPEVREKVAEEIRKFLEALPSAGGS [r16_311_TrMRF] | 0.67 ± 0.13
6 | SAGNIMVQVEPDPGGTVKVEIMFMIPLPNGWPIMIQIEWEVRVDEDGEPELKMPIEIFFSEEALDKGFSAGG [r19_63_TrROS] | 2.09 ± 0.13
7 | SAMMYLIRVTITVKNKETGEEKEIEVEILIEKEEGELTEEEIEELARKLAEELGLEVEEIKIEIEPLPESAG [r14_278_TrROS_Hall] | 5.3 ± 0.24
8 | SMKITTDPVNKTISATFPPGTDPLAETQKIVDEVKKKENSGDITITFSTGNTTINYTLGTNTVTTTPAGTSA [r9_224_JUSTAS] | -0.0954 ± 0.096
9 | SAGGSAGGSPVVAIRAKSREELLAALEALLPPGQKLTPEQRQQLVDTLLANLDVKPGDTILVRSAGGSAGGS [r12_983_TrROS_Hall] | 0.992 ± 0.12
10 | SAGGSAGGSAGGPEVERFRIPGDNVLVEVVRLEDERIARITFPDGSQLTVPLPPGWEAFSAGGSAGGSAGGS [r10_976_TrMRF] | 0.948 ± 0.097
11 | SAGGSAGGSAGGVDPTPDGILRVRVVIKDPNGDVFSEKEVEMTPEELEALKKAGYVILESAGGSAGGSAGGS [r10_749_JUSTAS] | 1.82 ± 0.054
12 | SAGGSAGGSLLEDIKKALEIIKPPPIPVKVKVKIEYDPEKGELKVEVEFFGIKLKVEGEFKIESAGGSAGGS [r20_230_TrMRF] | 3.04 ± 0.26
13 | SAGGSAGGSFKDVPPGLKPLREEENVLFYQLPDGSYLVLVKEGDKIKKIKASKSTSIEEAIKKSAGGSAGGS [r12_605_JUSTAS] | 1.61 ± 0.16
14 | SAGGSPLVLTSEVEKKFENSPDKTVEKYKIKVTVYDPKTGKKLKEIELEKTVEKGGNEKIEEPIILSAGGSA [r2_271_JUSTAS] | 0.419 ± 0.16
15 | SAGGSAGPALEIAKALTELYGAEEVTILDVHPDGYVHLHVRAVDYDDGEPVERELDVIFPIAPDDGSAGGSA [r15_646_TrMRF] | 1.18 ± 0.11
16 | SAGGKVKVVEIRYFPGTNTVEILVEDPGPYLATIRIPAAPDAPIEIDEDANFRVPDAPVVLGEVRPPSAGGS [r16_515_TrMRF] | 1.09 ± 0.072
17 | SAGGSAGGSAGGSSSSASVEVKTETSVSYDPSTGRTYTTTTSKYPLTNTTVTTTTTDPTSAGGSAGGSAGGS [r10_187_JUSTAS] | 0.621 ± 0.17
18 | SMKIEVSGGNVTVEMYMWRRKKERDPDDPGKERDQPEPMPQTHTIDPNDPEAAKKFLDKFPPGFRPEIHDSA [r9_476_TrROS] | 0.446 ± 0.25
19 | SAGGSAGGSAKLEYDDDYVEIEFKVPDGPIMIYIPDWGWMIWIWPGKEVTIRFPIPKPPDNSAGGSAGGSAG [r3_185_TrROS] | 3.43 ± 0.22
20 | SIWFSPGKKYKIDEIRFGGWEIEKFTAQVGPDGNIQIPMDIKPVKKPPPPPPVVRNPEDGKYYDPGDPKDSA [r9_603_TrROS] | 1.04 ± 0.78
21 | SAGGSAGGDPNDKPMKFELIETFTIPGNLNEAKDFLEDLLPPNWAINVEQEPGMITITIYKMKDSAGGSAGG [r6_953_TrROS] | 2.22 ± 0.2

Test: folding stability dG unfold from chymotrypsin proteolysis; higher = more stable
Procedure, shortened: as §1

Row | Sequence | folding stability dG unfold [kcal/mol]
22 | SAGGSAGGSAGGKKIHLFMPKEVAEKFAKELEKLGIDSKEVEIEFHEVDIPPSLPPELKSAGGSAGGSAGGS [r10_602_TrMRF] | -0.594 ± 0.48
23 | SAGGSAGGEEEELTEEERRELERRRRRLEEERRRRRPPRPRLRLTLTVRLPDGSTVTLEVEIRLSAGGSAGG [r6_844_TrROS_Hall] | 3.73 ± 0.056
24 | SAGGSAGGSAGGKKKYIVVKVKVEVDENGNVTITLPNGKKITIPKEKVEVKPDGYLVIKLSAGGSAGGSAGG [r7_684_TrROS_Hall] | 2.05 ± 0.028
25 | KTKTIVINAKDLTEEQLRELLKKLGVSEEDVEVSEDGKTVVIKIDGVTIVIVASPPKPVVKPDDPEAKKAAS [r1_57_TrROS_Hall] | 1.75 ± 0.085
26 | SAGGSAGGLRVVKPEKVVEAIRKIRELVPKNYLVIVDSIEVREEGGKLYVDIPVLVLPVPPELLSAGGSAGG [r6_819_TrMRF] | 1.79 ± 0.072
27 | SAGGSAMIKTSYDPNGKTIYTIPETGAVITVDPSTGKVTVEVDPESQANNPLPEEEVKKLAEEVLKSAGGSA [r15_735_JUSTAS] | 1.34 ± 0.018
28 | SAEKPPVVTLEIEIEIVVKDENGKTHKRKFRLTVTFYPDGTVEISIYDENGELIETITLPPGATLEELLSAG [r14_559_TrROS_Hall] | 3.99 ± 0.15
29 | SAGGMFKGPDGNWKTYKTTKPGLTKSDIGPFVEELVEKFLKDHGLNPENVSAKAEYNPSTGTVNVYVGSAGG [r13_913_TrMRF] | 0.783 ± 0.083
30 | SAGGSAGGSAGDNYVMITHTIPFPPGEPLEIKIPPGAKIDDIDPERDPGNGTITVSIWFRSAGGSAGGSAGG [r11_701_TrROS] | 0.879 ± 0.17
31 | SAGGSAGGSAGMKIEKNKDGKLRIIIYNKNGKKVKEIEMSVEEAKKLAEKNNFEIVKIEPSAGGSAGGSAGG [r11_521_TrROS_Hall] | 0.966 ± 0.41
